Experimental data reported in patent US10640563B2, “Anti-B7-H3 antibodies and antibody drug conjugates” (AbbVie Inc., priority 2016, dated 2020).
Residue numbers refer to the chain shown, from its start. Marks after values point to notes of the source that are not given here.

B1: Ab18: murine monoclonal Ab18 (antibody, V domains shown)
VH: QVQLQQSAAELARPGASVKMSCKASGYSFTSYTIHWVKQRPGQGLEWIGYINPNSRNTDYNQKFKDETTLTADRSSSTAYMQLISLTSEDSAVYYCARYSGSTPYWYFDVWGAGTTVTVSS
VL: QIVLTQSPAILSASPGEKVTMTCRASSSVSYMNWYQQKPGSSPKPWIYATSNLASGVPARFSVSVSGTSHSLTISRVEAEDAATYYCQQWSSNPLTFGAGTKLELK
B2: huAb3v2-CZ (conjugate)
VH: EVQLVQSGAEVKKPGSSVKVSCKASGYTFSSYWMHWVRQAPGQGLEWIGLIHPDSGSTNYNEMFKNRATLTVDRSTSTAYMELSSLRSEDTAVYYCAGGGRLYFDYWGQGTTVTVSS
VL: DIVMTQSPLSLPVTPGEPASISCRSSQSLVHSNGDTYLRWYLQKPGQSPQLLIYKVSNRFSGVPDRFSGSGSGTDFTLKISRVEAEDVGVYYCSQSTHVPYTFGGGTKVEIK
B3: huAb3v2.8-CZ (conjugate)
VH: B2 VH with D54I
VL: B2 VL with G34R
B4: huAb3v2.2-CZ (conjugate)
VH: B2 VH with D54W
VL: B2 VL with G34R
B5: huAb3v2.3-CZ (conjugate)
VH: B2 VH with D54W
VL: B2 VL with G34Q
B6: huAb3v2.9-CZ (conjugate)
VH: B2 VH with D54I
VL: B2 VL with G34Q
B7: Ab6 (antibody, V domains shown)
VH: QVQLQQSGAELMKPGASVKISCKATGYTFSRYWIEWVKQRPGHGLEWIGEILPGSGSTNYNEKFKGKATFTADTSSNTAYMQVSSLTSEDSAVHYCARRGYGYVPYALDYWGQGTSVTVSS
VL: EIQMTQTTSSLSASLGDRVTISCRASQDISNSLNWYQQKPDGTVNLLIYYTSRLYSGVPSRFSGSGSGTDYSLTISNLEQEDIATYFCQQGNTLPYTFGGGTKLEIK
B8: Ab8: murine anti-B7-H3 mAb (mouse hybridoma derived) (antibody, V domains shown)
VH: EVKLVESGGGLVKPGGSLKLSCAASGFTFSSYGMSWVRQTPEKRLEWVATISGGGNYTYCPDSVKGRFTISRDNAKNNLYLQMSSLRSEDTALYYCTRQRGYDYHYAMDFWGQGTSVTVSS
VL: DIQMTQSPASLSVSVGETVTITCRASENIYSNLAWHQQKQGKSPQLLVYAATNLADGVPSRFSGNGSDTQYSLKINSLQSEDFGSYFCQNFWGTSWTFGGGTKLEIK

Tests used:
[1] = test system: EBC1; test: In vivo xenograft model of non-small cell lung cancer EBC1; conditions: 7.5 mg/kg/day, QDx1/IV
Method: (§1) The anti-tumor activity was assessed as monotherapy and in combination with docetaxel (H1650, H1299, H1975, and EBC1).

[2] = test system: H1975; test: In vivo xenograft model of non-small cell lung cancer H1975; conditions: NCI-H1975; 7.5 mg/kg/day, QDx1/IV
Method: as §1

[3] = test system: H1650; test: In vivo xenograft model H1650; set-up: species or system mouse; conditions: NCI-H1650, 7.5 mg/kg/day
[4] = test system: H1299; test: In vivo xenograft model of non-small cell lung cancer H1299; conditions: NCI-H1299; 7.5 mg/kg/day, QDx1/IV
Method: as §1

[5] = molecular target: T1, mouse B7-H3 (Mus musculus, UniProt Q8VE98); test: FACS binding to mouse 3T12 fibroblasts expressing mouse B7-H3; conditions: purified mouse hybridoma mAb; cells expressing mouse B7-H3
T1 construct: expressed in transfected cells; host or cells: mouse 3T12 fibroblasts
T1 sequence (Q8VE98 29-316): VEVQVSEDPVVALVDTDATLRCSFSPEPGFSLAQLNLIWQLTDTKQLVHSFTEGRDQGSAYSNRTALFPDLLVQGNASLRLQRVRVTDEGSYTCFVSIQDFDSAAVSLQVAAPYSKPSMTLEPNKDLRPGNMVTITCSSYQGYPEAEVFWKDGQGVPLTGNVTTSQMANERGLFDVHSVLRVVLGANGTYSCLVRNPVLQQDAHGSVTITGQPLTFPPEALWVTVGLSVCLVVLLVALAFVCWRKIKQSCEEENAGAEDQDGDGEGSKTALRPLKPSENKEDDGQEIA

[6] = molecular target: T2, soluble ECD of human B7-H3 (Homo sapiens, UniProt Q5ZPR3); test: Biacore T200 SPR binding kinetics, mAb capture; conditions: Biacore T200, Fc capture of mAb, B7-H3 ECD as analyte, 1:1 binding model
T2 construct: His tag (6xHis) (C); made in house
T2 sequence (Q5ZPR3 with tags, fused parts or gaps): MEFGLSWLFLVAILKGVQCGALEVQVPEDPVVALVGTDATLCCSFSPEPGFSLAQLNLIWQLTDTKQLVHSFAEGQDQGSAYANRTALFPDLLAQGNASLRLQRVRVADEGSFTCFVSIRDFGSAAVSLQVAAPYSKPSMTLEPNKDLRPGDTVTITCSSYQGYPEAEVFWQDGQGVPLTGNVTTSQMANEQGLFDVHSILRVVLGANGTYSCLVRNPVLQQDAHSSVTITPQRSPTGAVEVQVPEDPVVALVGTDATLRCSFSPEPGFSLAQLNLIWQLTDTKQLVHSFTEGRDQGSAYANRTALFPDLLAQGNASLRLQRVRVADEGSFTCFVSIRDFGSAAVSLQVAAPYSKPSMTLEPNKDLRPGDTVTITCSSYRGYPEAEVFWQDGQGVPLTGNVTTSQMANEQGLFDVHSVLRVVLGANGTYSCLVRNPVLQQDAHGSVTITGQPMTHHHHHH
Method: The binding affinity of the purified anti-B7-H3 monoclonal antibodies was determined by surface […]. […] The binding kinetics were derived from SPR measurements using a Biacore T200 instrument and a mAb capture approach (as described in the materials and methods below).
Biacore T200 SPR instruments were used to measure the binding kinetics of human B7-H3 (analyte) binding to various mAbs (ligands). The assay format was Fc-based capture via immobilized anti-mouse (Fc) (Pierce 31170) or immobilized anti-human (Fc) (Pierce 31125). A standard amine coupling protocol was employed to immobilize the capture reagents via primary amines to the carboxy-methyl (CM) dextran surface of CM5 sensorchips (Biacore); capture antibodies were coupled to a level of approximately 5000 RU. For binding kinetic measurements the assay buffer was HBS-EP+ (Biacore): 10 mM Hepes, pH7.4, 150 mM NaCl, 3 mM EDTA, 0.05% polysorbate 20. During the assay, all measurements were referenced against the capture surface alone. Each assay cycle consisted of the following steps: 1) Capture of ligand to approximately 50 RU; 2) Analyte injection over both reference and test surface, 240 μL at 80 μL/min, after which the dissociation was monitored for 900 seconds at 80 μL/min; 3) Regeneration of capture surface with low pH glycine. For kinetic determinations analyte injections were 3-point, 9-fold dilution series of 900 nM, 100 nM and 11.11 nM, buffer only injections were included for secondary referencing. Data were processed and fit to a 1:1 binding model using Biacore T200 Evaluation Software to determine the binding kinetic rate constants, ka (on-rate) and kd (off-rate), and the equilibrium dissociation constant (affinity, KD).

[7] = test system: soluble ECD of cyno B7-H3; test: Biacore T200 SPR binding kinetics, mAb capture; set-up: species or system cynomolgus monkey; conditions: Biacore T200, Fc capture of mAb, B7-H3 ECD as analyte, 1:1 binding model
soluble ECD of cyno B7-H3, sequence (as listed by the source): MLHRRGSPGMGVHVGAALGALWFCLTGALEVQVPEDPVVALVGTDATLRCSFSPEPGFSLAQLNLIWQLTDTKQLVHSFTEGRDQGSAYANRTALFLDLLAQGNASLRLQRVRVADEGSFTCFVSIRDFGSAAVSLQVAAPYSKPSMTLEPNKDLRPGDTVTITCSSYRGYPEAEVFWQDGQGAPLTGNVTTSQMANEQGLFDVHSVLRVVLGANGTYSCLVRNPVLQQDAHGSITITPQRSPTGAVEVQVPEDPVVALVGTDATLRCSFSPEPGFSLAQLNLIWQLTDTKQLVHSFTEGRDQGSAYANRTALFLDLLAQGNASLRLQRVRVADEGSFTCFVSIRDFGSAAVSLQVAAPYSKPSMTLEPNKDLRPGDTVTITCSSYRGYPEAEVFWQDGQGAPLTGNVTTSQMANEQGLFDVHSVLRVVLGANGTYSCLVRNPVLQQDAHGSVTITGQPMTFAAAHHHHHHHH

[8] = test system: H847 cells; test: Cell cytotoxicity of ADCs in H847 cells; assay type: cell-based; conditions: Table 17; CZ conjugates; read-out: Cytotoxicity (H847 Cell line IC50)
Description: These new anti-B7-H3 antibodies were further characterized for binding by SPR and conjugated to the Bcl-xLi synthon CZ and assessed for cell cytotoxicity (using the methods described in Example 7).

[9] = Aggregation of conjugates by SEC; assay type: physicochemical
[10] = test system: NCI-H146 cells; test: In vivo xenograft model of small cell lung cancer (NCI-H146); set-up: species or system mice; conditions: 6 mg/kg/IP/QDx1
[11] = test system: HCC38 cell line; test: Cell cytotoxicity of ADCs in HCC38 cell line; assay type: cell-based; conditions: Table 14; CZ conjugates
Outline: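 Humanized anti-B7-H3 antibody (chAb18) variants conjugated to the Bcl-xL inhibitor synthon CZ and tested as ADCs for cytotoxicity in HCC38 cells.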

[12] = molecular target: T3, B7-H3 (Homo sapiens, UniProt Q5ZPR3); test: Affinity of naked mAbs by SPR (Biacore); assay type: binding; conditions: Table 17
T3 construct: His tag (6xHis) (C); made in house
T3 sequence (Q5ZPR3 with tags, fused parts or gaps): T2 sequence (Q5ZPR3 with tags, fused parts or gaps)
Method: The parental chAb18 from which the variants were derived was also tested as a comparator.

[13] = molecular target: T3, B7-H3; test: Pair-wise SPR binding assay for epitope grouping; conditions: simultaneous binding assay, 12° C.
Description: Pair-wise binding assays performed on Biacore T200 SPR instruments were used to determine the relative epitope grouping for the murine anti-B7-H3 mAbs as described in the methods below. […] Epitope groups are represented as individual ovals, some of which overlap with each other. Antibodies in different epitope groups can bind to B7-H3 simultaneously and likely bind to different epitopes while antibodies within a given epitope group cannot bind to B7-H3 simultaneously and likely bind to overlapping epitopes. The grouping information was derived from a simultaneous binding assay as described in materials and methods. Ab3, Ab4, Ab5, Abl 1, Ab12, and Ab8 groupings were ambiguous.
Pair-wise binding assays performed on Biacore T200 SPR instruments were used to determine the relative epitope grouping for a series of anti-B7-H3 mAbs. The assay format was Fc-based capture via immobilized anti-mouse(Fc) (Pierce 31170) or immobilized anti-human (Fc) (Pierce 31125). A standard amine coupling protocol was employed to immobilize the capture reagents via primary amines to the carboxy-methyl (CM) dextran surface of CM5 sensorchips (Biacore); capture antibodies were coupled to a level of approximately 2000 RU. Epitope grouping measurements were done at 12° C. (low temperature allows for grouping information on fast off-rate mAbs), the assay buffer was HBS-EP+(Biacore): 10 mM Hepes, pH7.4, 150 mM NaCl, 3 mM EDTA, 0.05% polysorbate 20. Each assay cycle consisted of the following steps in a four flowcell system: 1) separate test mAbs were captured in flowcells 2, 3 & 4 (flowcell 1 was reference, no test mAb); 2) all 4 flowcells were then blocked by injection with isotype control mAb or isotype mAb cocktail at 50 μg/mL; 3) all 4 flowcells were then injected with antigen or buffer only (buffer only is for double referencing, done for each mAb pair individually); 4) all 4 flowcells were then injected with 2nd test mAb at 10 μg/mL; 5) all 4 flowcells were then regenerated with glycine, pH1.5. The assay was done for each test mAb pair in reciprocal orientations. Simultaneous binding was evaluated examining the ratio of the 2nd test mAb response to the Ag response (RUmAb2/RUAg); if this ratio was equal to or greater than 0.2 the interaction was scored as a simultaneous binder. From this pair-wise binding assay data a “venn” style diagram was constructed manually to depict relative epitope groupings.

[14] = Table 17, CZ conjugates of huAb3v2 variants

Molecule	huB7-H3 ka [6]	huB7-H3 kd [6]	cynoB7-H3 ka [7]	cynoB7-H3 kd [7]	IC50 [8]	% agg by SEC [9, 14]	Affinity of naked mAbs (Biacore, KD) [12]	other results
CC(=O)O[C@@]12CO[C@@H]1C[C@H](O)[C@@]1(C)C(=O)[C@H](O)C3=C(C)[C@@H](OC(=O)[C@H](O)[C@@H](NC(=O)OC(C)(C)C)c4ccccc4)C[C@@](O)([C@@H](OC(=O)c4ccccc4)[C@H]21)C3(C)C [Docetaxel]								TGD (%) [1]: 80%; TGImax (%) [1]: 85%; TGD (%) [2]: 77%; TGImax (%) [2]: 81%; TGD (%) ([3]; IV/Q14Dx3): 158* %; TGImax (%) ([3]; IV/Q14Dx3): 80* %; TGD (%) ([3]; QDx1/IV): 143%; TGImax (%) ([3]; QDx1/IV): 84%; TGD (%) [4]: 48%; TGImax (%) [4]: 87%
B1	210000 M⁻¹ s⁻¹	3.6e-05 s⁻¹	240000 M⁻¹ s⁻¹	2.9e-05 s⁻¹				FACS Binding (EC50 nM) Mouse B7-H3 [5]: No binding
B2					1.49 nM			% agg by SEC ([9]; Table 14, CZ conjugates of Ab3 variants): 10.1%; TGD (%) ([10]; Table 15): 52%; TGImax (%) ([10]; Table 15): 83%; IC50 [11]: 0.13 nM
B3					2.36 nM	5.7%	Poor fit	
B4					26.7 nM	1.8%	Poor fit	
B5						1.5%	Poor fit	
B6					2.3 nM	4.3%	Poor fit	TGD (%) ([10]; Table 23): 135%; TGImax (%) ([10]; Table 23): 94%
B7	12000 M⁻¹ s⁻¹	0.01 s⁻¹	28000 M⁻¹ s⁻¹	0.012 s⁻¹				FACS Binding (EC50 nM) Mouse B7-H3 [5]: No binding
B8	58000 M⁻¹ s⁻¹	9.9e-05 s⁻¹	160000 M⁻¹ s⁻¹	0.00026 s⁻¹				relative human B7-H3 epitope grouping [13]: ambiguous
